Reference: patent US20200206358A1, “LONG-CIRCULATING THERANOSTIC AGENTS FOR DIAGNOSING AND IMAGING METASTATIC TUMORS” (The Board of Trustees of the Leland Stanford Junior …, priority 2018, published 2020)
Non-standard residues stand in square brackets, D forms with d. Residues, ends and D or L forms follow the SMILES beside them. ξ: configuration not given here. *: point of attachment. X1 = Cc1cc(-c2ccc(N*)c(C)c2)ccc1N=Nc1ccc2c(S(=O)(=O)O)cc(S(=O)(=O)O)c(N)c2c1O; DOTA = O=C(O)CN1CCN(CC(=O)O)CCN(CC(=O)*)CCN(CC(=O)O)CC1; ξE = NC(CCC(=O)O)C(=O)O

Experiments:
143B tumor = test: microPET/CT imaging, time activity curves in 143B tumor bearing nude mice; format: in vivo
Procedure: (§1) The tumor uptake of [^64Cu]DOTA-EB-TMTP1 was increased as time goes by, and reached the plateau of 6.5±0.8% ID/g at 8 h after injection.

[1] = as above; format: in vivo; conditions: mouse, in vivo, iv; 8 h after i.v. injection, 143B tumor bearing nude mice; read-out: tumor uptake (plateau, PET time activity curve)
Procedure: as §1

[2] = cell uptake of [^64Cu]DOTA-EB-TMTP1; format: cell-based; conditions: n=4, mean±SD; uptake ratio increased with time
in vivo = test: in vivo; design: species or system nude mice; conditions: nude, mouse, iv
Source text: Tumor uptake was 6.7[…]% ID/g.

143B cells = test: inhibition of [^64Cu]DOTA-EB-TMTP1 binding to 143B cells by TMTP1; conditions: TMTP1 competing with [^64Cu]DOTA-EB-TMTP1 on 143B cells; unit inferred
[3] = test system: highly metastatic tumor cells; conditions: literature, PLOS One (2012) 7(9): e42685; cited from earlier work

IC50 (143B cells) [nM]	Compound	tumor uptake (plateau, PET time activity curve) (143B tumor; 8 h after i.v. injection, 143B tumor bearing nude mice)	circulation time in the body (143B tumor; mouse, in vivo)	pharmacokinetic properties (143B tumor; mouse, in vivo)	tissue uptake at 8 h [1] [%ID/g]	time at which cell uptake ratio reached the peak [2] [min]	tissue uptake at 48 h (in vivo) [%ID/g]	affinity for a series of highly metastatic tumor cells [3]
	Cc1cc(-c2ccc(NC(=O)CCC(NC(=O)CN3CCN(CC(=O)O)CCN(CC(=O)O)CCN(CC(=O)O)CC3)C(=O)NCC(=O)N[C@@H](CC(N)=O)C(=O)N[C@H](C(=O)N[C@H](C(=O)N[C@@H](CCCNC(=N)N)C(=O)N[C@@H](CCC(N)=O)C(=O)O)C(C)C)C(C)C)c(C)c2)ccc1N=Nc1ccc2c(S(=O)(=O)O)cc(S(=O)(=O)O)c(N)c2c1O (some centres unmarked) [[^64Cu]DOTA-EB-TMTP1, metal not drawn] ({DOTA}-[ξE](X1)GNVVRQ-OH)	6.5%±0.8 % ID/g	long circulation time	favorable pharmacokinetic properties	6.5 ± 0.8	45	6.7	
211	NVVRQ [TMTP1]							high affinity
